Experiment [1] addresses T1, mouse OX40 expressed on ExpiCHO-S cells (mouse, UniProt P47741 20-272).
T1 construct: full-length entry; also called OX40mm; wild-type mouse OX40
T1 sequence: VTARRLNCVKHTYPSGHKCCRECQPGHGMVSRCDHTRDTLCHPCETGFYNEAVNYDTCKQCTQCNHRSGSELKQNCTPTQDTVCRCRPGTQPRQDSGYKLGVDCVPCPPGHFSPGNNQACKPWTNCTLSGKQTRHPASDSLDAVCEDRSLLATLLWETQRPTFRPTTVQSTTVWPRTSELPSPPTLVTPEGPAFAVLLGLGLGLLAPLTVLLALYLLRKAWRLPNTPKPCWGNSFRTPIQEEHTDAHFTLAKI
Put plainly: flow cytometry, transfected ExpiCHO-S cells, gMFI (PE). (Flow cytometry measures light scatter and fluorescence of single cells or particles in a stream.)

Experiment [2] concerns the target T2, human OX40 with mouse CRD4 (human with mouse CRD4, UniProt P43489 29-277).
T2 construct: on ExpiCHO-S cells; also called OX40-CRD4mm; Shuffle 4
T2 chain: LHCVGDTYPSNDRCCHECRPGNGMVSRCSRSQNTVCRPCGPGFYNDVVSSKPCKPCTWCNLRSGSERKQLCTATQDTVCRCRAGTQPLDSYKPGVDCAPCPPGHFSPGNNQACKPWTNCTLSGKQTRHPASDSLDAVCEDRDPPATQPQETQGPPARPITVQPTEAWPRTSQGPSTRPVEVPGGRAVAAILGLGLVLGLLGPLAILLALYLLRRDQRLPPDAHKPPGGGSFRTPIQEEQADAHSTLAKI
The experiment is described as above. The procedure:
(§1) The four shuffle constructs, as well as wild-type human and mouse OX40 were transiently expressed on ExpiCHO-S cells using the ExpiFectamine™ CHO Transfection Kit (ThermoFisher, cat. no. A29131), according to the manufacturer's protocol. […] Next, cells were washed twice in FACS buffer 1, were resuspended in a 30 μL solution of viability marker ToPro-3 (Invitrogen, cat. no. T3605, diluted 1:10,000) in FACS buffer 1 supplemented with 2 mM EDTA, and were analyzed on an iQue Screener Plus (Intellicyt Corporation, USA). Data were analyzed using FlowJo software and visualized using GraphPad Prism.

Experiment [3] concerns the target T3, human OX40 expressed on cells (human, UniProt P43489 29-277).
T3 construct: also called CD134; TNFRSF4
T3 sequence: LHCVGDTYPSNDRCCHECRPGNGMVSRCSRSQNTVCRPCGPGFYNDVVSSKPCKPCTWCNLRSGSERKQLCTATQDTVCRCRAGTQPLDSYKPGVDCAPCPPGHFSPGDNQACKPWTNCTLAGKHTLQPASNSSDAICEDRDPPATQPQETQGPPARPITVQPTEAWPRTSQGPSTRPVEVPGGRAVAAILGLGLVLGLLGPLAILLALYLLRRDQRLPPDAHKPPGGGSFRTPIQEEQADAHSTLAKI
Put plainly: flow cytometry, OX40-transfected HEK293F cells, gMFI (PE). The protocol:
(§2) Transfected cells were seeded in 96-well plates (30,000 cells/well; ThermoFisher, cat. no. 163320) for sequential incubations, with washing steps in between using fluorescence-activated cell sorting (FACS) buffer 1 (phosphate buffered saline [PBS; Lonza, cat. no. BE17-517Q] supplemented with 0.1% bovine serum albumin [BSA; Roche, cat. no. 10735086001] and 0.02% sodium azide [NaN₃; Bio-World, cat. no. 41920044-3]) supplemented with 2 mM ethylenediaminetetraacetic acid (EDTA; Sigma-Aldrich, cat. no. 03690). […] Cells were then washed using EDTA-supplemented FACS buffer 1, resuspended in a 30 μL solution of viability marker ToPro-3 (Invitrogen, cat. no. T3605, diluted 1:10,000) in EDTA-supplemented FACS buffer 1, and subsequently analyzed on an iQue® 3 flow cytometer (Satorius). Data were analyzed using FlowJo software and were visualized using GraphPad Prism.

Experiment [4] concerns the target T4, cynomolgus monkey OX40 expressed on HEK293F cells (cynomolgus monkey (Macaca fascicularis), UniProt P43489 29-277 (human entry)).
T4 construct: full-length entry
T4 chain: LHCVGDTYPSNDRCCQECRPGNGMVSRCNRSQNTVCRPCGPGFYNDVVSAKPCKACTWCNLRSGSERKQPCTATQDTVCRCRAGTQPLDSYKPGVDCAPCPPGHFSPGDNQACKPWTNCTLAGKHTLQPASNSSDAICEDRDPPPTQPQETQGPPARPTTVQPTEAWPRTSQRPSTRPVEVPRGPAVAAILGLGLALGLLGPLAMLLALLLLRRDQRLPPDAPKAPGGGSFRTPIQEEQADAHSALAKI
The experiment is described as above. The protocol: as §2

Experiment [5] addresses T5, human OX40 with mouse CRD2 (human with mouse CRD2, UniProt P43489 29-277).
T5 construct: on ExpiCHO-S cells; also called OX40-CRD2mm; Shuffle 2
T5 chain: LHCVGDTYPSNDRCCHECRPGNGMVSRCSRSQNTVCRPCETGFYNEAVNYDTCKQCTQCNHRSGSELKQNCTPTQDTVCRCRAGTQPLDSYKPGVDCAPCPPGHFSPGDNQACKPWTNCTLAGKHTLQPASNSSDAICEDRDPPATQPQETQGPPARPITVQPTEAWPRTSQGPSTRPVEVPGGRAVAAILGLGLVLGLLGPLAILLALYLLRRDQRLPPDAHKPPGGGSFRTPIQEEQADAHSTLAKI
Kind of experiment: flow cytometry, transfected ExpiCHO-S cells, MFI at 5 µg/mL as % of IgG1-CD134-A4453. The procedure:
as §1

Experiment [6] has as its target T6, human OX40 with mouse CRD3 (human with mouse CRD3, UniProt P43489 29-277).
T6 construct: on ExpiCHO-S cells; also called OX40-CRD3mm; Shuffle 3
T6 chain: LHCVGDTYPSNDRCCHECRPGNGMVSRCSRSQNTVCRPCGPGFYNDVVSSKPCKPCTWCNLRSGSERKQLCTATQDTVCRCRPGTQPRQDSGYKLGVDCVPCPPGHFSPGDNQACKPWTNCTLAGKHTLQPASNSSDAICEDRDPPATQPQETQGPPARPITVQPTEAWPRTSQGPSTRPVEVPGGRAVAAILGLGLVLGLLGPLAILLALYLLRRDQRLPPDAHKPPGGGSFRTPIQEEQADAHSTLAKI
The description is as above. The protocol: as §1

The target in experiment [7] is T5, human OX40 with mouse CRD2. Put plainly: flow cytometry, transfected ExpiCHO-S cells, gMFI (PE).
Experiment [8] has as its target T7, human OX40 with mouse CRD1 (human with mouse CRD1, UniProt P43489 29-277).
T7 construct: on ExpiCHO-S cells; also called OX40-CRD1mm; Shuffle 1
T7 chain: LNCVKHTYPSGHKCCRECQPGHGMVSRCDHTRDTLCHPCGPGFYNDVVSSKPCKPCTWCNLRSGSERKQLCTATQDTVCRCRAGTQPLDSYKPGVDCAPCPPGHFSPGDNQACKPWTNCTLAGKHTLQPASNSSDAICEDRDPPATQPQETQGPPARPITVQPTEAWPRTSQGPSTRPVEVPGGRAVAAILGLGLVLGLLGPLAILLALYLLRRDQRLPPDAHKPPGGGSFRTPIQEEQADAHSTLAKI
Kind of experiment: flow cytometry, transfected ExpiCHO-S cells, MFI at 5 µg/mL as % of IgG1-CD134-A4453. The procedure: as §1

Two molecules from patent US20240400703A1 (Genmab, published 2024) can be followed below.

B1: IgG1-CD134-012-RR-K409R (antibody)
heavy: QSLEESGGRLVTPGTPLTLICTVSGIDLSSGAMGWVRQAPGKGLEYIGYIYTGSGTTSYASWVNGRFTISMTSTTVDLKITSPTTEDTATYFCARDAASSYWGHFTLWGQGTLVTVSSASTKGPSVFPLAPSSKSTSGGTAALGCLVKDYFPEPVTVSWNSGALTSGVHTFPAVLQSSGLYSLSSVVTVPSSSLGTQTYICNVNHKPSNTKVDKRVEPKSCDKTHTCPPCPAPELLGGPSVFLFPPKPKDTLMISRTPEVTCVVVDVSHEDPEVKFNWYVDGVEVHNAKTKPREEQYNSTYRVVSVLTVLHQDWLNGKEYKCKVSNKALRAPIEKTISKAKGQPRRPQVYTLPPSREEMTKNQVSLTCLVKGFYPSDIAVEWESNGQPENNYKTTPPVLDSDGSFFLYSRLTVDKSRWQQGNVFSCSVMHEALHNHYTQKSLSLSPG
light: DIVMTQTPASVEAAVGGTVTIKCQASENIYSSLAWYQQKPGQPPKLLIYRTSTLASGVPSRFKGSGSGTQFTLTISDLESDDAATYYCQSYYHNSGGGYDYGFGGGTEVVAKRTVAAPSVFIFPPSDEQLKSGTASVVCLLNNFYPREAKVQWKVDNALQSGNSQESVTEQDSKDSTYSLSSTLTLSKADYEKHKVYACEVTHQGLSSPVTKSFNRGEC
notes: also called IgG1-CD134-012-P329R-E345R-K409R
Take B1: the binding result in experiment [1] is “no binding (tested: 50 µg/mL)”; in experiment [2] it was “binds”; in experiment [5] it was “binds”; in experiment [6], “binds”. In addition, the entries for the “EC50 (read off the curve)” value in experiment [3] and in experiment [4] were about 0.05 µg/mL and about 0.06 µg/mL, respectively.

B2: IgG1-CD134-007-RR (antibody)
heavy: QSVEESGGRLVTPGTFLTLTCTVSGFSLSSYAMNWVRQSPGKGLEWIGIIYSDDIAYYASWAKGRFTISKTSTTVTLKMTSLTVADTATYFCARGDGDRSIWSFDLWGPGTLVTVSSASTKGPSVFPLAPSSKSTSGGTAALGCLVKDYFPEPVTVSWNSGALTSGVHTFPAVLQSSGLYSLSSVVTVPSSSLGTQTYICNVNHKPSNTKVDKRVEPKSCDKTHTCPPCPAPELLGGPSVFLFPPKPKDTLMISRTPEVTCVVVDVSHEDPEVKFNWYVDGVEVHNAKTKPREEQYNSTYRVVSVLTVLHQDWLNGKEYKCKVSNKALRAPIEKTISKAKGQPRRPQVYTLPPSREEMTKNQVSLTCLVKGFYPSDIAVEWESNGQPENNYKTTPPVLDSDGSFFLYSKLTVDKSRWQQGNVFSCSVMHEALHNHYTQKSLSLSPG
light: AQVLTQTPSPVSAAVGGTVTISCQSSESVWNNNWLAWYQQKPGQPPNLLIYEASTLASGVSSRFKGSGSGTQFTLTVSEVQSDDAATYYCQGGYYDSSPIWTFGGGTEVVVKRTVAAPSVFIFPPSDEQLKSGTASVVCLLNNFYPREAKVQWKVDNALQSGNSQESVTEQDSKDSTYSLSSTLTLSKADYEKHKVYACEVTHQGLSSPVTKSFNRGEC
notes: non-humanized 007 variable regions; also called IgG1-CD134-007-P329R-E345R
For the molecule B2, the binding result is “no binding (tested: 50 µg/mL)” in experiment [1]; “no binding (tested: 50 µg/mL)” in experiment [7]; “binds” in experiment [2]; “binds” in experiment [8]; “binds” in experiment [6]. The “EC50 (read off the curve)” value in experiment [3] is about 0.05 µg/mL; in experiment [4] it was about 0.04 µg/mL.

For orientation: EC50 (read off the curve) means the concentration needed to bring the measured effect to its halfway point.
